Reference: the supplement of paper PMC5998384

Legend:
HeLa Kyoto [1] = assay: solubility in G1/S (NP-40 vs SDS abundance) (log2 ratio); higher = more soluble; settings: cell cycle stage: G1/S
HeLa Kyoto [2] = assay: solubility change mitosis vs G1/S (difference of NP-40 vs SDS log2 ratios) (log2 ratio difference); higher = more soluble in mitosis
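For solubility change mitosis vs G1/S (difference of NP-40 vs SDS log2 ratios) in this document: synchronized HeLa Kyoto cells (double thymidine block for G1/S, nocodazole release for mitosis), protein amounts in NP-40 versus SDS lysates quantified by mass spectrometry, three biological replicates.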
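For solubility in G1/S (NP-40 vs SDS abundance) in this document: HeLa Kyoto cells arrested at G1/S by double thymidine block, proteins quantified by TMT10plex mass spectrometry in mild NP-40 versus SDS extracts, three biological replicates.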

Sequence of CLK3 (chain, as listed by the source): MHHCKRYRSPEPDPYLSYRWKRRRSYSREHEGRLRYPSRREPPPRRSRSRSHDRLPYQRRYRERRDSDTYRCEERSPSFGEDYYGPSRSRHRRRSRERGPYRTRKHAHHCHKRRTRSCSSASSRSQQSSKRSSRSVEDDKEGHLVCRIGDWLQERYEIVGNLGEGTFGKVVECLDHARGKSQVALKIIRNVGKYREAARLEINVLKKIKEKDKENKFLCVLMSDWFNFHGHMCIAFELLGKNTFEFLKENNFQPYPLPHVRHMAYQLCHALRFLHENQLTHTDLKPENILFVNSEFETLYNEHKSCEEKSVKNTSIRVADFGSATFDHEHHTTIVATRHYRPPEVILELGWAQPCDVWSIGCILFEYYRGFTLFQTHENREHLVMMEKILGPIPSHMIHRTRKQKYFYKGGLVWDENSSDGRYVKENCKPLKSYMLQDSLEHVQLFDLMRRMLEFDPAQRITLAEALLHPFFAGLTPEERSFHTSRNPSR

MSLRRHIGNPEYLMKRIPQNPRYQHIKSRLDTGNSMTKYTEKLEEIKKNYRYKKDELFKRLKVTTFAQLIIQVASLSDQTLEVTAEEIQRLEDNDSAASDPDAETTARTNGKGNPGEQSPSPEQFINNAGAGDSSRSTLQSVISGVGELDLDKGPVKKAEPHTKDKPYPDCPFLLLDVRDRDSYQQCHIVGAYSYPIATLSRTMNPYSNDILEYKNAHGKIIILYDDDERLASQAATTMCERGFENLFMLSGGLKVLAQKFPEGLITGSLPASCQQALPPGSARKRSSPKGPPLPAENKWRFTPEDLKKIEYYLEEEQGPADHPSRLNQANSSGRESKVPGARSAQNLPGGGPASHSNPRSLSSGHLQGKPWK [CEP41]
solubility in G1/S (log2) (HeLa Kyoto [1]): 0.311
solubility change mitosis (log2) (HeLa Kyoto [2]): 0.231

PDCD11
solubility in G1/S (log2) (HeLa Kyoto [1]): -2.88
solubility change mitosis (log2) (HeLa Kyoto [2]): 1.53

MAELGEADEAELQRLVAAEQQKAQFTAQVHHFMELCWDKCVEKPGNRLDSRTENCLSSCVDRFIDTTLAITSRFAQIVQKGGQ [TIMM8B]
solubility in G1/S (log2) (HeLa Kyoto [1]): -0.938
solubility change mitosis (log2) (HeLa Kyoto [2]): 0.734

CLK3
solubility in G1/S (log2) (HeLa Kyoto [1]): -1.26
solubility change mitosis (log2) (HeLa Kyoto [2]): 0.423

ALG12
solubility in G1/S (log2) (HeLa Kyoto [1]): -0.268
solubility change mitosis (log2) (HeLa Kyoto [2]): -0.0892

MSMTLGYWDIRGLAHAIRLLLEYTDSSYEEKKYTMGDAPDYDRSQWLNEKFKLGLDFPNLPYLIDGAHKITQSNAILCYIARKHNLCGETEEEKIRVDILENQAMDVSNQLARVCYSPDFEKLKPEYLEELPTMMQHFSQFLGKRPWFVGDKITFVDFLAYDVLDLHRIFEPNCLDAFPNLKDFISRFEGLEKISAYMKSSRFLPKPLYTRVAVWGNK [GSTM4]
solubility in G1/S (log2) (HeLa Kyoto [1]): -0.0869
solubility change mitosis (log2) (HeLa Kyoto [2]): -0.101

MEDSQDLNEQSVKKTCTESDVSQSQNSRSMEMQDLASPHTLVGGGDTPGSSKLEKSNLSSTSVTTNGTGGENMTVLNTADWLLSCNTPSSATMSLLAVKTEPLNSSETTATTGDGALDTFTGSVITSSGYSPRSAHQYSPQLYPSKPYPHILSTPAAQTMSAYAGQTQYSGMQQPAVYTAYSQTGQPYSLPTYDLGVMLPAIKTESGLSQTQSPLQSGCLSYSPGFSTPQPGQTPYSYQMPGSSFAPSSTIYANNSVSNSTNFSGSQQDYPSYTAFGQNQYAQYYSASTYGAYMTSNNTADGTPSSTSTYQLQESLPGLTNQPGEFDTMQSPSTPIKDLDERTCRSSGSKSRGRGRKNNPSPPPDSDLERVFVWDLDETIIVFHSLLTGSYAQKYGKDPPMAVTLGLRMEEMIFNLADTHLFFNDLEECDQVHIDDVSSDDNGQDLSTYSFATDGFHAAASSANLCLPTGVRGGVDWMRKLAFRYRRVKELYNTYKNNVGGLLGPAKRDAWLQLRAEIEGLTDSWLTNALKSLSIISTRSNCINVLVTTTQLIPALAKVLLYSLGGAFPIENIYSATKIGKESCFERIMQRFGRKVVYVVIGDGVEEEQAAKKHNMPFWRISSHSDLLALHQALELEYL [EYA4]
solubility in G1/S (log2) (HeLa Kyoto [1]): -0.147
solubility change mitosis (log2) (HeLa Kyoto [2]): -0.16

MFSLKPPKPTFRSYLLPPPQTDDKINSEPKIKKLEPVLLPGEIVVNEVNFVRKCIATDTSQYDLWGKLICSNFKISFITDDPMPLQKFHYRNLLLGEHDVPLTCIEQIVTVNDHKRKQKVLGPNQKLKFNPTELIIYCKDFRIVRFRFDESGPESAKKVCLAIAHYSQPTDLQLLFAFEYVGKKYHNSANKINGIPSGDGGGGGGGGNGAGGGSSQKTPLFETYSDWDREIKRTGASGWRVCSINEGYMISTCLPEYIVVPSSLADQDLKIFSHSFVGRRMPLWCWSHSNGSALVRMALIKDVLQQRKIDQRICNAITKSHPQRSDVYKSDLDKTLPNIQEVQAAFVKLKQLCVNEPFEETEEKWLSSLENTRWLEYVRAFLKHSAELVYMLESKHLSVVLQEEEGRDLSCCVASLVQVMLDPYFRTITGFQSLIQKEWVMAGYQFLDRCNHLKRSEKESPLFLLFLDATWQLLEQYPAAFEFSETYLAVLYDSTRISLFGTFLFNSPHQRVKQSTEFAISKNIQLGDEKGLKFPSVWDWSLQFTAKDRTLFHNPFYIGKSTPCIQNGSVKSFKRTKKSYSSTLRGMPSALKNGIISDQELLPRRNSLILKPKPDPAQQTDSQNSDTEQYFREWFSKPANLHGVILPRVSGTHIKLWKLCYFRWVPEAQISLGGSITAFHKLSLLADEVDVLSRMLRQQRSGPLEACYGELGQSRMYFNASGPHHTDTSGTPEFLSSSFPFSPVGNLCRRSILGTPLSKFLSGAKIWLSTETLANED [MTMR10]
solubility in G1/S (log2) (HeLa Kyoto [1]): -0.147
solubility change mitosis (log2) (HeLa Kyoto [2]): 0.00531

MGAAGSSALARFVLLAQSRPGWLGVAALGLTAVALGAVAWRRAWPTRRRRLLQQVGTVAQLWIYPVKSCKGVPVSEAECTAMGLRSGNLRDRFWLVINQEGNMVTARQEPRLVLISLTCDGDTLTLSAAYTKDLLLPIKTPTTNAVHKCRVHGLEIEGRDCGEATAQWITSFLKSQPYRLVHFEPHMRPRRPHQIADLFRPKDQIAYSDTSPFLILSEASLADLNSRLEKKVKATNFRPNIVISGCDVYAEDSWDELLIGDVELKRVMACSRCILTTVDPDTGVMSRKEPLETLKSYRQCDPSERKLYGKSPLFGQYFVLENPGTIKVGDPVYLLGQ [MARC1]
solubility in G1/S (log2) (HeLa Kyoto [1]): 0.00278
solubility change mitosis (log2) (HeLa Kyoto [2]): -0.0926

MKLHCEVEVISRHLPALGLRNRGKGVRAVLSLCQQTSRSQPPVRAFLLISTLKDKRGTRYELRENIEQFFTKFVDEGKATVRLKEPPVDICLSKAISSSLKGFLSAMRLAHRGCNVDTPVSTLTPVKTSEFENFKTKMVITSKKDYPLSKNFPYSLEHLQTSYCGLVRVDMRMLCLKSLRKLDLSHNHIKKLPATIGDLIHLQELNLNDNHLESFSVALCHSTLQKSLRSLDLSKNKIKALPVQFCQLQELKNLKLDDNELIQFPCKIGQLINLRFLSAARNKLPFLPSEFRNLSLEYLDLFGNTFEQPKVLPVIKLQAPLTLLESSARTILHNRIPYGSHIIPFHLCQDLDTAKICVCGRFCLNSFIQGTTTMNLHSVAHTVVLVDNLGGTEAPIISYFCSLGCYVNSSDMLK [PPIL5]
solubility in G1/S (log2) (HeLa Kyoto [1]): -0.0487
solubility change mitosis (log2) (HeLa Kyoto [2]): -0.0159

MARKSNLPVLLVPFLLCQALVRCSSPLPLVVNTWPFKNATEAAWRALASGGSALDAVESGCAMCEREQCDGSVGFGGSPDELGETTLDAMIMDGTTMDVGAVGDLRRIKNAIGVARKVLEHTTHTLLVGESATTFAQSMGFINEDLSTTASQALHSDWLARNCQPNYWRNVIPDPSKYCGPYKPPGILKQDIPIHKETEDDRGHDTIGMVVIHKTGHIAAGTSTNGIKFKIHGRVGDSPIPGAGAYADDTAGAAAATGNGDILMRFLPSYQAVEYMRRGEDPTIACQKVISRIQKHFPEFFGAVICANVTGSYGAACNKLSTFTQFSFMVYNSEKNQPTEEKVDCI
solubility in G1/S (log2) (HeLa Kyoto [1]): 0.0983
solubility change mitosis (log2) (HeLa Kyoto [2]): -0.136

MPGRHVSRVRALYKRVLQLHRVLPPDLKSLGDQYVKDEFRRHKTVGSDEAQRFLQEWEVYATALLQQANENRQNSTGKACFGTFLPEEKLNDFRDEQIGQLQELMQEATKPNRQFSISESMKPKF [SDHAF3]
solubility in G1/S (log2) (HeLa Kyoto [1]): 0.106
solubility change mitosis (log2) (HeLa Kyoto [2]): 0.134

MGALARALLLPLLAQWLLRAAPELAPAPFTLPLRVAAATNRVVAPTPGPGTPAERHADGLALALEPALASPAGAANFLAMVDNLQGDSGRGYYLEMLIGTPPQKLQILVDTGSSNFAVAGTPHSYIDTYFDTERSSTYRSKGFDVTVKYTQGSWTGFVGEDLVTIPKGFNTSFLVNIATIFESENFFLPGIKWNGILGLAYATLAKPSSSLETFFDSLVTQANIPNVFSMQMCGAGLPVAGSGTNGGSLVLGGIEPSLYKGDIWYTPIKEEWYYQIEILKLEIGGQSLNLDCREYNADKAIVDSGTTLLRLPQKVFDAVVEAVARASLIPEFSDGFWTGSQLACWTNSETPWSYFPKISIYLRDENSSRSFRITILPQLYIQPMMGAGLNYECYRFGISPSTNALVIGATVMEGFYVIFDRAQKRVGFAASPCAEIAGAAVSEISGPFSTEDVASNCVPAQSLSEPILWIVSYALMSVCGAILLVLIVLLLLPFRCQRRPRDPEVVNDESSLVRHRWK [BACE2]
solubility in G1/S (log2) (HeLa Kyoto [1]): 0.0932
solubility change mitosis (log2) (HeLa Kyoto [2]): 0.0177
